In patent US20190322750A1 (Y BIOLOGICS, published 2019):

T1: ITGA6
T1 construct: unrelated antigen column; all antibodies give 0.5 to 0.6
T1 sequence (P23229 whole entry, species assumed, looked up): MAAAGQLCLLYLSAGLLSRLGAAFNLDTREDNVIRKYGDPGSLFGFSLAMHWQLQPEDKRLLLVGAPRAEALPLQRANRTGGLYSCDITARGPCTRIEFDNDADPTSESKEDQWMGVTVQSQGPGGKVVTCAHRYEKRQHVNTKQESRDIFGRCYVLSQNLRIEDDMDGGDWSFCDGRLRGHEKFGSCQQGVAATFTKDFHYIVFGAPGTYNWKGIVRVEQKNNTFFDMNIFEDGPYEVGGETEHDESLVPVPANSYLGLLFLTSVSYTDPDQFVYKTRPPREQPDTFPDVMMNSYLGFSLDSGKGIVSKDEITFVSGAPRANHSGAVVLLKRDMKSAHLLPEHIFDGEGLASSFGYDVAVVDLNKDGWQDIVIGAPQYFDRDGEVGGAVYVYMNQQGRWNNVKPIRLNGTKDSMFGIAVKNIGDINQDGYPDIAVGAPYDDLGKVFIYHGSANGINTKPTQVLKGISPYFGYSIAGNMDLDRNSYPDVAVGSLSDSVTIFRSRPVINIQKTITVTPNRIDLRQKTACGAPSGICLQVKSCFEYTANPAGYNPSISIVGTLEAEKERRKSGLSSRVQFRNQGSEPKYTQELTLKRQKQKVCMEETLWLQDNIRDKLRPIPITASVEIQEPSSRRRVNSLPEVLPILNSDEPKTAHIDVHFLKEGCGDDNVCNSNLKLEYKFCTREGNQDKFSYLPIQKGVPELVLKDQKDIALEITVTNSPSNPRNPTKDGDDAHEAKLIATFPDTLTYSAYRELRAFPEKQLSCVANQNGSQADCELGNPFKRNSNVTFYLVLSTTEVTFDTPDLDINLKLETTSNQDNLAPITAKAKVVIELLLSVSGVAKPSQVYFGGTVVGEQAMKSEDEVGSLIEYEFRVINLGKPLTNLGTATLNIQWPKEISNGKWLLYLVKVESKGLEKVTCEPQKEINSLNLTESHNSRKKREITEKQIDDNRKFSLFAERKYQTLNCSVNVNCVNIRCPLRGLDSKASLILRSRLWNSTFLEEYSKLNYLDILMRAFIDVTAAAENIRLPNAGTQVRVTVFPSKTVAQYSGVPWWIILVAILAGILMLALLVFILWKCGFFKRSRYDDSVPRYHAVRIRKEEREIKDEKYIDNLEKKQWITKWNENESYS


What was measured:
[1] = molecular target: T2, PD-L1 on CHO cell line highly expressing PD-L1 (PD-1/PD-L1 blockade bioassay kit, promega J1250) (UniProt Q9NZQ7 19-290, limits assumed); experiment: cell-based or functional assay
T2 sequence (Q9NZQ7 19-290 limits assumed): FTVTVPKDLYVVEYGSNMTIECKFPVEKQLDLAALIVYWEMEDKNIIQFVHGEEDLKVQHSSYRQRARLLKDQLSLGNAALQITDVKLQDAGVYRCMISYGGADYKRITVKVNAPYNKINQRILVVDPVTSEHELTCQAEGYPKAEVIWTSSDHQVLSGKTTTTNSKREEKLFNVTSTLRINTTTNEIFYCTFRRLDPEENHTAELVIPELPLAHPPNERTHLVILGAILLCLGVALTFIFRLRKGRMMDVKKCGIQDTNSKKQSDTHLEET

M1 = experiment: ELISA on coated antigen, column M1
Description: (§1) An antigen PD-L1 wild type (WT) or several mutants were coated at a density of 100 ng/well on a 96-well immunoplate at 4° C. for 16 hours and the wells were blocked with 4% skim milk dissolved in PBS. Each well was washed with 0.2 ml of PBS/T, and then a single clone scFv-phage (each […]) cultured for 16 hours was added in a dose of 100 μl to each well and reacted at room temperature for 2 hours. Again, each well was washed 4 times with 0.2 ml of PBS/T, and then the second antibody, anti-Fab, was diluted to 1/2000 and reacted at room temperature for 1 hour. After washing with 0.2 ml of PBS/T, color development was performed and absorbance was measured at 490 nm.

M2 = experiment: ELISA on coated antigen, column M2
Description: as §1

M3 = experiment: ELISA on coated antigen, column M3
M4 = experiment: ELISA on coated antigen, column M4
Description: as §1

M5 = experiment: ELISA on coated antigen, column M5
Description: as §1

M6 = experiment: ELISA on coated antigen, column M6
Description: as §1

M7 = experiment: ELISA on coated antigen, column M7
M8 = experiment: ELISA on coated antigen, column M8
Description: as §1

WT = molecular target: T3, WT (human, UniProt Q9NZQ7); experiment: ELISA on coated antigen, column WT
T3 construct: recombinant; also called hPD-L1; antigen PD-L1 wild type (WT)
T3 sequence (Q9NZQ7 19-238 limits assumed): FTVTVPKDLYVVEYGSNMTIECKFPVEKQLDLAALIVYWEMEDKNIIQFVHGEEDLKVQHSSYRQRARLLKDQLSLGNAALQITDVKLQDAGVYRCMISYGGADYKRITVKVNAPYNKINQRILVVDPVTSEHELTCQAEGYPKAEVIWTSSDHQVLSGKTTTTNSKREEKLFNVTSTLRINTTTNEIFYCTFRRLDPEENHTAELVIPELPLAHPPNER
Description: as §1

ITGA6 = molecular target: T1, ITGA6; experiment: ELISA on coated antigen, column ITGA6
mouse PD-L1 protein = mouse PD-L1 protein (mouse, UniProt Q9EP73 19-238, limits assumed); experiment: ELISA on coated antigen, column mPD-L1
mouse PD-L1 protein, sequence (Q9EP73 19-238 limits assumed): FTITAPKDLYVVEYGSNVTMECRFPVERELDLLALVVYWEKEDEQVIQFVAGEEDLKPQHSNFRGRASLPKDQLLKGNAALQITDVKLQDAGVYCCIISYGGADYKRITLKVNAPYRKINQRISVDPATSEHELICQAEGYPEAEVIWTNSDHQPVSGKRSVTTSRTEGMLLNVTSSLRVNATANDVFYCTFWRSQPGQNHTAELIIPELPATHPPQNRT
Description: as §1

PD-L1-His = molecular target: T4, PD-L1-His (human, UniProt Q9NZQ7); experiment: competition ELISA: PD-L1-His pre-incubated with the antibody, then on coated PD-1-Fc (blocked ligand); % of max absorbance
T4 construct: recombinant, His-tagged; also called human PD-L1-His (S1479, Y-Biologics)
T4 sequence (Q9NZQ7 19-238 limits assumed): as the sequence (Q9NZQ7 19-238 limits assumed) above

[2] = molecular target: T2, PD-L1 on CHO cell line highly …; experiment: cell-based or functional assay; remark: listed apart in the source
[3] = molecular target: T5, human PD-L1 over-expressed on HEK293E cells (human, UniProt Q9NZQ7 19-290); experiment: flow cytometry on HEK293E/PD-L1 cells, FITC anti-human IgG, serial dilutions; fit table
T5 construct: whole, on cells; also called human PD-L1 (NM_014143.2)
T5 sequence (Q9NZQ7 19-290): as the sequence (Q9NZQ7 19-290 limits assumed) above
Description: 0.5 to 1×10⁶ cells per sample were prepared from the transformation cell pools highly expressing human PD-L1, and antibodies were serially diluted at a constant dilution rate and reacted with the prepared cells at 4° C. for 20 minutes. Then, the cells were washed three times with PBS (#LB001-02, Welgene) containing 2% fetal bovine serum and reacted at 4° C. for 20 minutes with an anti-human IgG antibody (#FI-3000, Vectorlabs) conjugated with a FITC (fluorescein isothiocyanate) fluorescent substance. Then, the cells were subjected to the same washing process as above and then suspended in 0.5 ml of PBS containing 2% FBS (#26140-079, Thermo Fisher) with an FACSCanto II flow cytometer (BD Biosciences, USA) as a flow cytometer (Table 11).

PD-L1-hFc = molecular target: T6, PD-L1-hFc (human, UniProt Q9NZQ7 19-238); experiment: kinetics on PD-L1-hFc (legend paragraph 40; text names ProteOn XPR36, the sheet's sensorgrams have a nm axis)
T6 construct: extracellular domain; Made in HEK-293F cells, protein A purified; also called PD-L1 antigen; PD-L1 protein
T6 sequence (Q9NZQ7 other isoform, or with tags, fused parts or gaps limits assumed): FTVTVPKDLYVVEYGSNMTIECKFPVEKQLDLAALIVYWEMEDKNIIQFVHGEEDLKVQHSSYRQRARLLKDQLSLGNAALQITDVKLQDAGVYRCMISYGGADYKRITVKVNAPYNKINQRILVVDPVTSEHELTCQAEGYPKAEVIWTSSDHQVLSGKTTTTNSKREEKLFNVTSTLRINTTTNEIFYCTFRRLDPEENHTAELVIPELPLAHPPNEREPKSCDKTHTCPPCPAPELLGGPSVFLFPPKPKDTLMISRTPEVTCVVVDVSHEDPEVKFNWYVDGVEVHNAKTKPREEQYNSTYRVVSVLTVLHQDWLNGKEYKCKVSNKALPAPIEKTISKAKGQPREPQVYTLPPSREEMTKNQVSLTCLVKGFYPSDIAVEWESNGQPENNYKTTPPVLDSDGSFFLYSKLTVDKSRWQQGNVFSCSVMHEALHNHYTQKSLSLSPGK

Binder | Average *EC50 [nM], PD-1/PD-L1 blockade bioassay [1] [nM] | absorbance at 490 nm (M1) | absorbance at 490 nm (M2) | absorbance at 490 nm (M3) | absorbance at 490 nm (M4) | absorbance at 490 nm (M5) | absorbance at 490 nm (M6) | absorbance at 490 nm (M7) | absorbance at 490 nm (M8) | absorbance at 490 nm (WT) | absorbance at 490 nm (ITGA6) | absorbance at 490 nm (mouse PD-L1 protein) | binding result (mouse PD-L1 protein) | IC50 (PD-L1-His) [nM] | EC50 (column 1차 EC50 [nM], first run; row 16E12, curve legend 16E12_Kappa) [2] [nM] | EC50 (column 2차 EC50 [nM], second run; row 16E12, curve legend 16E12_Kappa) [2] [nM] | Bmax [3] | Kd [3] [nM] | Kd (PD-L1-hFc) [nM] | kon (PD-L1-hFc) [M⁻¹ s⁻¹]
PDL1-11A7 (antibody, V domains shown, Only FR/CDR pieces are tied to the clone) VH: QVQLVQSGAEVKKPGASVKVSCKVSGYTLTELSMHWVRQAPGKGLEWMGGFDPEDGETIYAQKFQGRVTMTEDTSTDTAYMELSSLRSEDTAVYYCARDPWGGYYGMDVWGQGTTVTVSS VL: DIQMTQSPSSVSASVGDRVTINCRASQGIRTWLAWYQQKPGKAPKLLIYAASNLQSGVPSRFSGSGSGTDFTLTIASLQPEDFATYYCQQANSFPLTFGGGTKVEIK | 3.25 | 2.5 | 2.3 | 0.8 | 2.4 | 2.5 | 2.5 | 2.5 | 0.4 | 2.5 | 0.5 | 0.1 | no binding | – | – | – | – | – | – | –
PD-L1-16E12 (WT/Lambda) (antibody, V domains shown) VH: QMQLVQSGAEVKKPGSSVKVSCKASGGTFSSYAISWVRQAPGQGLEWMGRIIPILGIANYAQKFQGRVTITADKSTSTAYMELSSLRSEDTAVYYCAKPRDGYNLVAFDIWGQGTMVTVSS VL: QLVLTQPPSVSGAPGQTVTISCTGSSSNIGAGYDVHWYQQLPGTAPKLLIYGNNNRPSGVPDRFSGSKSGALASLAITGLQAEDGADYHCQSYDNSLSAHAVFGTGTKVTVL | 0.96 | – | – | – | – | – | – | – | – | – | – | – | – | 9.11 | – | – | – | – | – | –
PD-L1-16E12-LS-4F5 (Lambda) (antibody, V domains shown) VH: QMQLVQSGAEVKKPGSSVKVSCKASGGTFSSYAISWVRQAPGQGLEWMGRIIPILGIANYAQKFQGRVTITADKSTSTAYMELSSLRSEDTAVYYCAKPRDGYNLVAFDIWGQGTMVTVSS VL: QLVLTQPPSVSGAPGQRVTISCTGSSSNIGAGYDVHWYQQLPGAAPKLLIYGDINRPSGVPDRFSGSKSGISASLAITGLQAEDEADYYCQSYDSSLSGGVFGGGTKLTVL | 0.25 | – | – | – | – | – | – | – | – | – | – | – | – | 6.86 | – | – | – | – | – | –
PD-L1-16E12 (WT/kappa) (antibody, V domains shown, also called PD-L1-16E12-Kappa) VH: QMQLVQSGAEVKKPGSSVKVSCKASGGTFSSYAISWVRQAPGQGLEWMGRIIPILGIANYAQKFQGRVTITADKSTSTAYMELSSLRSEDTAVYYCAKPRDGYNLVAFDIWGQGTMVTVSS VL: QLVLTQPPSVSGAPGQTVTISCTGSSSNIGAGYDVHWYQQLPGTAPKLLIYGNNNRPSGVPDRFSGSKSGALASLAITGLQAEDGADYHCQSYDNSLSAHAVFGTGTKVTVL | 0.47 | – | – | – | – | – | – | – | – | – | – | – | – | 7.88 | 0.41 | 0.45 | 4140 | 4 | 0.0149 | 268000
PDL1-31B7 (antibody, V domains shown, Only FR/CDR pieces are tied to the clone) VH: QVQLVESGAEVKKPGSSVKVSCKASGGTFSSYAISWVRQAPGQGLEWMGRIIPILGIANYAQKFQGRVTITADKSTSTAYMELSSLRSEDTAVYYCARASSGYSVGAFDIWGQGTMVTVSS VL: QLVLTQPPSVSAPPGQKVTISCSGSSSNIGNNYVSWYQQLPGTAPKLLIYDNNERPSGIPDRFSASKSGTSATLGISGLQTGDEADYYCGTWDSSLSAGVFGGGTKLTVL | 1.74 | 2.8 | 2.7 | 1.1 | 0.7 | 2.9 | 2.9 | 3 | 3 | 2.5 | 0.5 | 1.8 | – | – | – | – | – | – | – | –
